Assay results reported in patent US20220236279A1.
pIC50: −log10 of the molar value.

Legend:
[1] = target: human atypical chemokine receptor 3 (ACKR3) (human) (UniProt P25106); experiment: binding competition with CXCL12-AF647, flow cytometry
[2] = target: human atypical chemokine receptor 3 (ACKR3) (human) (UniProt P25106); experiment: cell-based or functional assay

human atypical chemokine receptor 3 (ACKR3) (human), sequence (P25106 whole entry): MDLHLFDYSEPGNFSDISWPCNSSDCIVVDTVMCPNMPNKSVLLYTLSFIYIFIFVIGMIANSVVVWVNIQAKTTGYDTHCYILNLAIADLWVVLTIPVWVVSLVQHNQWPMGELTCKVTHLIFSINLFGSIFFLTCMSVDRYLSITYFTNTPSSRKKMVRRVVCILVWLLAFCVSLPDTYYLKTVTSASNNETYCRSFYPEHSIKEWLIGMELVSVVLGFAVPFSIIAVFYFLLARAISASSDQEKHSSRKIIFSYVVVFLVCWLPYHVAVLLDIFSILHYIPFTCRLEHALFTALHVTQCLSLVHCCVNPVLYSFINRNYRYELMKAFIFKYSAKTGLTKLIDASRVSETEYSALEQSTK

| Substance | pIC50 [1] | EC50, β-arrestin recruitment (NanoBiT) [2] [nM] |
| --- | --- | --- |
| nociceptin 1-13 amide | < 5.00 |  |
| CXCL11 (C-X-C motif chemokine 11) (from UniProt O14625 22-94) (ligand) |  | 2.2 |
